Data reported in patent US10501734B2, “Compositions and methods of use thereof for making polypeptides with many instances of nonstandard amino acids” (Yale University, priority 2014, dated 2019).

B1: pAcFRS.1.t1: pAcFRS variant A167D, R257G, SEQ ID NO: 5 (protein)
chain: MDEFEMIKRNTSEIISEEELREVLKKDEKSALIGFEPSGKIHLGHYLQIKKMIDLQNAGFDIIILLADLHAYLNQKGELDEIRKIGDYNKKVFEAMGLKAKYVYGSEFQLDKDYTLNVYRLALKTTLKRARRSMELIAREDENPKVAEVIYPIMQVNGCHYRGVDVDVGGMEQRKIHMLARELLPKKVVCIHNPVLTGLDGEGKMSSSKGNFIAVDDSPEEIRAKIKKAYCPAGVVEGNPIMEIAKYFLEYPLTIKGPEKFGGDLTVNSYEELESLFKNKELHPMRLKNAVAEELIKILEPIRKRL
B2: pAzFRS.2.t1: pAcFRS variant E107T, F108Y, Q109M, R257G, SEQ ID NO: 14 (protein)
chain: MDEFEMIKRNTSEIISEEELREVLKKDEKSALIGFEPSGKIHLGHYLQIKKMIDLQNAGFDIIILLADLHAYLNQKGELDEIRKIGDYNKKVFEAMGLKAKYVYGSTYMLDKDYTLNVYRLALKTTLKRARRSMELIAREDENPKVAEVIYPIMQVNGCHYRGVDVAVGGMEQRKIHMLARELLPKKVVCIHNPVLTGLDGEGKMSSSKGNFIAVDDSPEEIRAKIKKAYCPAGVVEGNPIMEIAKYFLEYPLTIKGPEKFGGDLTVNSYEELESLFKNKELHPMRLKNAVAEELIKILEPIRKRL
B3: pAcFRS: progenitor M. jannaschii based p-acetyl-L-phenylalanine AARS, SEQ ID NO:1 (Young, et al., 2010) (protein, listed as Methanocaldococcus jannaschii)
chain: MDEFEMIKRNTSEIISEEELREVLKKDEKSALIGFEPSGKIHLGHYLQIKKMIDLQNAGFDIIILLADLHAYLNQKGELDEIRKIGDYNKKVFEAMGLKAKYVYGSEFQLDKDYTLNVYRLALKTTLKRARRSMELIAREDENPKVAEVIYPIMQVNGCHYRGVDVAVGGMEQRKIHMLARELLPKKVVCIHNPVLTGLDGEGKMSSSKGNFIAVDDSPEEIRAKIKKAYCPAGVVEGNPIMEIAKYFLEYPLTIKRPEKFGGDLTVNSYEELESLFKNKELHPMRLKNAVAEELIKILEPIRKRL
B4: pAzFRS.1.t1: pAcFRS variant D158V, I159M, L162D, A167Y, R257G, SEQ ID NO: 11 (protein)
chain: MDEFEMIKRNTSEIISEEELREVLKKDEKSALIGFEPSGKIHLGHYLQIKKMIDLQNAGFDIIILLADLHAYLNQKGELDEIRKIGDYNKKVFEAMGLKAKYVYGSEFQLDKDYTLNVYRLALKTTLKRARRSMELIAREDENPKVAEVIYPIMQVNVMHYDGVDVYVGGMEQRKIHMLARELLPKKVVCIHNPVLTGLDGEGKMSSSKGNFIAVDDSPEEIRAKIKKAYCPAGVVEGNPIMMEIAKYFLEYPLTIKGPEKFGGDLTVNSYEELESLFKNKELHPMRLKNAVAEELIKILEPIRKRL

System: TAG codons
Experiment: MRM mass spectrometry quantitation of nsAA incorporation in ELP-GFP
Design: species or system E. coli
Conditions: for pAcF (Y) / pAcF: calculated as 100%−Y %−F %; for near cognate suppression and mischarging events of K, P, L/I, and Q: content in proteins produced
Description: Purified ELP-GFP protein was dissolved by vortex in protein solubilization buffer (15 mM Tris-HCl, 1.5 mM EDTA, pH=8.5) and the protein concentration was determined by UV280. Solubilization buffer was then added to adjust the concentration of the protein stock solutions to 2.0 μg/μl. For protein digestion, 12.5 μl of this solution (25 μg) was supplemented with 3.125 μl freshly prepared digestion buffer 5×. The composition of the digestion buffer 5× was: 50 mM Tris-HCl pH=8.5, 5 mM EDTA, 50 mM DTT and 2.5% (w/v) freshly prepared acid labile surfactant II (ALS II). Proteins were thermally denatured in a heat block at 95° C. for 5 min and the reaction was then quenched on ice. To alkylate the cysteines, 2.5 μl of 1 M Tris-HCl buffer (pH=8.5) and 5.83 μl freshly prepared 100 mM IAA solution were added. The reaction proceeded for 30 min at room temperature and in the dark. Excess IAA was quenched with 0.875 μl of 200 mM aqueous DTT solution. Next, 1.25 μl LysC enzyme solution, prepared at 7.0×10^−4 activity units/μl in water, were added and protein was digested for 4 h at 37° C. in an incubator without shaking. The digest was supplemented with 157.77 μl 105.6 mM Tris-HCl pH=8.5 buffer containing 5.28 mM CaCl2. For digestion with trypsin, 3.6 μl sequencing grade porcine trypsin (Promega), provided as solution with 0.5 μg/μl trypsin, was added and digestion proceeded for 15 h at 37° C. in an incubator without shaking. The digest was quenched by adding 15.63 μl 20% TFA solution. The pH value of the digest was tested with pH indicator paper to ensure that the pH value was between a value of 1 and 2 to ensure efficient cleavage conditions for ALSII. Detergent was hydrolyzed for 15 min at 23° C. and peptides were desalted using C18 UltraMicroSpin columns (The Nest Group, Southborough, Mass.) following the instructions provided with the columns. Eluted peptides solutions were dried in a vacuum centrifuge which was operated at 45° C. The dried peptides were then dissolved by vortex in 11 μl peptide solvent consisting of 2:3:7 by volume 70% FA, 1-propanol and 0.5% acetic acid. The peptide concentration was determined by UV280 enabling equal loading for LC-MS. Peptide stock solutions were frozen at −80° C. until use. For shotgun proteomic analysis, peptide stock solutions were diluted to a concentration of 60 ng/μl in 3:8 by volume 70% formic acid 0.1 TFA and 5 μl corresponding to 300 ng total peptides were injected for each analysis.
The C-terminally labeled stable isotope labeled peptides (lysine (^13C6^15N2) or arginine (^13C6^15N4)) VPGAGVPGYGVPGVGK, VPGAGVPGFGVPGVGK and FEGDTLVNR were obtained as a lyophilized powder supplied as 1 nmol aliquots. Peptides were dissolved in 30% acetonitrile 0.1% formic acid at a concentration of 20 pmol/μl. Standards were then combined to obtain a master mix with 6.666 pmol/μl of each peptide. Dilution of peptide standards and protein digest for MRM was performed in Agilent polypropylene sample vials with MRM solvent consisting of 100 ng/μl sodium deoxycholate in 3:7 by volume DMSO/0.1% formic acid. Calibration of the instrument was performed with a 11 point calibration curve with 0, 1, 2, 5, 10, 20, 50, 100, 200, 500 and 1000 fmol peptide injected. Peptide stock solutions from the digestion of ELP-GFP were prepared at 5 ng/μl in MRM solvent containing 50 fmol/μl of the stable isotope labeled peptides. MRM solvent blank injections between sample injections and quality control standards analyzed before and after sample injection ensured consistent performance of the MRM platform.
Shotgun discovery data from the analysis of stable isotope labeled peptides and ELP-GFP digests were imported into Skyline^2 software v. 2.5 to extracted suitable transitions for MRM quantitation of peptides. A detailed description of this workflow will be reported somewhere else^3. Briefly, at least 3 transitions were extracted for peptides reporting incorporation of natural and unnatural amino acids at the position of the stop codon. […]

[1] = ELP(10TAG)-GFPMS, nsAA added pAcF
[2] = ELP(30TAG)-GFPMS, nsAA added pAcF
[3] = ELP(10TAG)MS-ELP(20TAG)-GFP, nsAA added pAcF
[4] = ELP(20TAG)-ELP(10TAG)MS-GFP, nsAA added pAcF
[5] = ELP(10TAG)-GFPMS, nsAA added pAzF, N = 3

| Molecule | F at TAG position [1] [%] | Y at TAG position [1] [%] | pAcF (Y) [1] [%] | F at TAG position [2] [%] | Y at TAG position [2] [%] | pAcF [2] [%] | near cognate suppression and mischarging events of K, P, L/I, and Q | F at TAG position (ELP(10TAG)-GFPMS, No nsAA) [%] | Y at TAG position (ELP(10TAG)-GFPMS, No nsAA) [%] | pAcF (Y) (ELP(10TAG)-GFPMS, No nsAA) [%] | F at TAG position [3] [%] | Y at TAG position [3] [%] | pAcF [3] [%] | F at TAG position [4] [%] | Y at TAG position [4] [%] | pAcF [4] [%] | F at TAG position [5] [%] | Y at TAG position [5] [%] |
| --- | --- | --- | --- | --- | --- | --- | --- | --- | --- | --- | --- | --- | --- | --- | --- | --- | --- | --- |
| B1 | 0.26 | 2.42 | 97.32 | 0.29 | 1.53 | 98.18 | striking decrease |  |  |  |  |  |  |  |  |  |  |  |
| B2 | 2.45 | 2.08 | 95.47 | 2.87 | 1.78 | 95.35 | striking decrease | 55.35 | 50.15 | −5.50 | 3.74 | 2.19 | 94.06 | 3.25 | 2.17 | 94.58 |  |  |
| B3 | 0.36 | 1.37 | 98.26 | 0.55 | 1.14 | 98.31 |  |  |  |  |  |  |  |  |  |  |  |  |
| B4 |  |  |  |  |  |  |  |  |  |  |  |  |  |  |  |  | 3.34 | 0.13 |
